Laboratory results: US20120082667A1
pKd: −log10 of the molar value.

Target: A beta oligomer prepared from synthetic A beta1-40 (HCl form), 0.1 mg/ml in PBS, incubated at 37 degrees C for one hour (UniProt P05067)
Experiment: SPR, Biacore 3000, A beta1-40 oligomer on CM5 chip, antibody as analyte at five concentrations

pKd: 8.54
koff: 0.000168 s⁻¹
kon: 57800 M⁻¹ s⁻¹
Substance: Anti-A beta antibody 6E10 (Covance Immuno-Technologies)
